Measured values reported in a protein production outcome set (Wang et al. 2014).

Assay: label from the status in PepcDB records

| Sequence | protein production |
| --- | --- |
| MTDKKDFAASEHNNNDNIHAEVVPRQGISIIWFVPFIALIFGLWLTAKVVSEQGTFITIEFDNGSGIIPNKTEIRYKGLVTGLVKKVVPSADLQRVIAEVEISKNFTDYLTENTRFWLVSADISLQGVSGLDTLISGSYITIMPDTNQEADSQDHFVALTEAPTLDMSTPGLHLTLHTDVLGSISENSPISFKQIPIGHVTGYHYKESSKKIGINIYIKPEFAHLVKENSLFYNTSGVQVTASLTGGVKVNTESLASIMAGGISVDNLSYQTELAPAKNGQTFPLHADFQSAEMGHEVELTLEWNSGIDHNAAILFQGLTIGVIESFSKIDPVSRKITATAKVNPRVVPYLTDQSQFYIVAPQISLAGLTNAKTLLTGNYLSIRPSLAGNPSNKFNVFSSKPPYKYTEPGLHLMLTSSDRSSLQIGSNVYYKQQVVGNIQAIETTAPERHLIHIHVQPKFSHYVNHSSRFYNNSGVKISANLLGVDIQAQSLQSILTGGIAFTSQNSTQESQKKLVKNGDSFSLYANNKLAEQNISFTLNYMASEHISSDTRLLYRGIEIGAIHQTKIQGNKQQLQLGLLPEYEHILKADTQFYIVKPNLSLSGASDTDALFGGTYITFNLGQGKAKNQFTLFSQPPVKLASSPGLQLSLSTDHANVATPGSAISYRGITIGQVDNVSLNKIDDEIKVNITIDEEHRGLLKSTSRFYNAGGMTISGGLSDFVVKTESIDAILRGGISFYNPEVLLPTSLITNTQVEELSNFTLFKHEEHAKDAGQTISIHFNDISGLKVNTKVIYQEQTLGTIERLIFTADKVGVTALVLLNDSGSQFARKGTKFWKIEPQIGLVGSKNVAALLDGAFIGLLPSHNVEAKLKNEFEALELAPTVEQLSYGLNIKLTTARLGSVRVGNPVLYRQIKVGKVIGIDLSATADQVNIFINIAKRYAPLVNGNSQFWNTSGINIEASIFSGINIDSESIETLIAGGIAFATPDIDENNDKEQNDETKSLPASFILHQDVDEDWLEWQPKIAINNQTTSAE | failed |
| MTDKTPWSLRSVGNPSPIEIAMMLLSLLSVIIVLVMTFGRLDKETYRLLFFIDTTICMIFMVNFFAGLFRARDKLFYLRHHWIDFIASIPAIEALRIARVFQILRVIRLIRMSRSFLIPLIKQRKQATLASLLVAMVTILTFASIIILIIESGTEGANIQTAEQAIWWALVTISTVGYGDFYPVSTAGHIVGGIVIVSGVSFFGVISGYMASVFVAPDESERQERQDAHKAEIKSELELALARMEENQRQMELNQAQMLTKIAELKQALEDKKG | failed |
| MTDNETPAEDQVGDRVAGLLLAAGGGRRLGGRPKALLEHRGHPLVEHAVEVLRTAGCARVHVVLGARAADVRARAALDGCTLVDNPDWEQGMGSSLRAGLGSLAATGARAALVCLVDQPGIGAAATARVRARFRDETSLASAAYAGVRGHPVLLGAAHWAGVAATASGDRGARAYLREHEAEIALVECGDVARPYDIDTEADLVHLELEHHHHHH | not failed |
| MTDNTRLRIAMQKSGRLSDDSRELLARCGIKINLHTQRLIAMAENMPIDILRVRDDDIPGLVMDGVVDLGIIGENVLEEELLNRRAQGEDPRYFTLRRLDFGGCRLSLATPVDEAWDGPLSLNGKRIATSYPHLLKRYLDQKGISFKSCLLNGSVEVAPRAGLADAICDLVSTGATLEANGLREVEVIYRSKACLIQRDGEMEESKQQLIDKLLTRIQGVIQARESKYIMMHAPTERLDEVIALLPGAERPTILPLAGDQQRVAMHMVSSETLFWETMEKLKALGASSILVLPIEKMME | not failed |
| MTDPVFFAPSRRYTAAEVANLTGSVLVDSGQSDVSIEALAPASEGGANALVFVDGRRNSALMPSLRAAAVLCPAEFANKAPSSVAVLIHPRPQQAFALVGRLLFPTAATPGPMTSETGVSAHAHIDPTAHVEAGAIIEAGVVIGPGVSIGSGTVIAPNAVIGQSCQIGRDGYVGPGASIQYALIGNRVIIHGGARIGQDGFGFVGGAKGPERVPQIGRVVIQDDVEIGSNSTVDRGAMSDTIIGQGTKIDNLVQIAHNVRIGRNCIVAGLSGISGSVVVGDNVTMGGGVGLADHLTIGSGAKLAARSGFMSNVPAGEIWGGYPAQPMAEAMREIAMLRTMARARKQGKDNG | failed |
| MTDRQLIVLAALNIMVAVGAGAFGAHGLRRVVDPTLLAIWHTGVLYHLIHALGLFVVALLGARFGSPLLSMAGLVMFIGILLFCGSLYVLVLTGTRWLGAVTPLGGVAFLAAWAMVAWAAWRAPA | failed |
| MTDRSEDADGEPAPEDAAGLDDDALDHEFSEGAGFDDPYAGFDLDPPELDVDPDTVDPVDSRVVADTLDERTLDNDAVDADELIDVGLSYMGINRNEQAVDTFERAAQYTDDDNREQEAWVNKGIAHGELEEWDAAVGAHREALFVADDGDFEAAAHTNLAYALWEFGEDEQAYEHAEEAVRVDKRLPQAWYNLGFIENERDRPEQALDALDNAIRLGFQQADVYEEKTRALEALGRDEEAAKVAEQADEIRSQQERELVDER | failed |
| MTDRYIAFANSPVGRRLVGAVGLPSPLRLERWQAGRVRPVDGPLVIGGSGALAEAVLPFAGKLTDAVFAAVDGQFELPRWTAEHSPRAKAVLFDASGLTRFEQLVALRDFFQPVLKGLDKCPKVVVLGRPPESLKDPVTASVQRSLEGFTRSLGKEIRRGGNVQLLYVGKGAEDQLEGALRFFLSPKSAYVSGQVIRLAANSAQVHDWSKPLAGQRALVTGAARGIGAAIAETLARDGAEVVLLDVPPAREALEGLAARLGGRAVALDICAADAGQQLVEALPEGVDIVVHNAGITRDKTLAKMSSDFWNSVINVNLNAPQVLTQALLDGGKLHDNGRVVLLASISGIAGNLGQSNYAVSKAGLIGLAQAWAPALGKRGITINAVAPGFIETQMTAAIPLTIREAGRRMNSMSQGGLPQDVAETVAWFAQPSSGAVSGQVLRVCGQSLLGA | failed |
| MTDVEKPVDNSGTLIDDILSPLKGVNEDLNVLVLGGDKVNNNTDTMMLVNFKPSTSKVSILSIPRDTKVKINGKKAKINSAYPTGGGELAVQTVSELFGIDVKYYVFVDTSSFRKIIDILGGVDYYVPVDMDYDDPLQGLSIHIKKGQHHFDGAMAEKFMRFRQYNNGRVNEYYDGSDLKRIDAQQNFIRELVRQKLNIFYLTKVDDIASTIFSNIDTNLNMSEVLKLTGSVSKVQADSINMLKVPGKSVLDGAWYYVIDSQETDKIINEYFRTRYKLEHHHHHH | not failed |
| MTEAMIRKKPGMASVKDMPLLQDGPPPGGFAPVRYARRISNTGPSAMAIFLTVSGAFAWGMYQVGQGNKIRRALKEEKYAARRAILPILQAEEDERFVSEWKKYLEYEADVMKDVPGWKVGENVYNSGRWMPPATGELRPDVW | failed |
| MTEFTTLLQQGNAWFFIPSAILLGALHGLEPGHSKTMMAAFIIAIKGTIKQAVMLGLAATISHTAVVWLIAFGGMVISKRFTAQSAEPWLQLISAVIIISTAFWMFWRTWRGERNWLENMHGHDYEHHHHDHEHHHDHGHHHHHEHGEYQDAHARAHANDIKRRFDGREVTNWQILLFGLTGGLIPCPAAITVLLICIQLKALTLGATLVVSFSIGLALTLVTVGVGAAISVQQVAKRWSGFNTLAKRAPYFSSLLIGLVGVYMGVHGFMGIMR | failed |
| MTEGRVIDVDVSSEMESSFLEYAVSVIHSRALPDARDGLKPVQRRIVYQMGDMGLRPERGHVKSSRIVGDVMGKLHPHGDTAIYDALVRLSQSFIMRVPLVDGHGNFGSLDDGPAAPRYTEARLTSASMQMIAGLDEDVVDFVGNYDNTLTQPEVLPSAFPNLLINGTSGIAVGMATNMAPHNPGEVIAACCHLIRNPEAGLAELMRFIPGPDLPTGGRIIGLDGVREAYETGRGTFRTRATVSIENINARRKGIVVTELPYLVGPEKVVSKVKDAVGAKKLTGIASIDDYSDRKNGMRLVIGIKNGFNPEAVLAELYRQTPLEESFSMNNVCLVDGQPRTLGLRELLTVYLAHRIDVIRRRTVFQLRKAKDRLHLVEGLLIAILDIDEVIQLIRSSDDAATARTRLMDVFELSELQATYILDLQLRRLTKFSRIELEAERDELRKKIAYLEDLLADEAKLRELVATELEATAEAIGSPRRTVLIEGSMKELSAKGKKAQADLKIADAPCRVLLSTSGRIARTADASPLQRVGKRSSHDALRSEIVSTTQGKVGAVTSTGRLHMVDVVDLPALPPAATRPNVAGGVKIADYVTLEKNETVLGLIDLDREFVLGTAGGVVKRVSVAARPNKSEWEAITLKGKDSVIGVAQPKDIDESLAVFVTSNAQLLAFDASGLRAQGWNASGVAGMKVAADARALFFGMTPKAAKTDEEGDADTNIGTFAVVTVASGENFYGAPSSSIKVSDFSEYPTKGRATSGVRAHKFLKGETELSLAWVGDSPQAAAQAGGARTLPAEMSRRDATGSPLESKIDVIGTVPRLGDAEAALSGGGAGAGDSGAAGTDASGDGGAASGGGSSSSAATRTQGLATNFGELDLDLDGGPDLDEAKEEIARSKIDSDDAVIVSHDDDDDDDTALF | failed |
